# Measured values published in the nanobody polyreactivity screen of Harvey et al. (2022).
# Assay: yeast display, Sf9 membrane polyspecificity reagent, FACS + sequencing; frameworks hold sequencing errors
# Procedure, shortened: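 Nanobodies from a synthetic yeast display library (Saccharomyces cerevisiae BJ5465), induced 36–48 hours with galactose, were stained 1 hour at 4 °C with 10% biotinylated, detergent-solubilized Sf9 membrane reagent, enriched on streptavidin microbeads, then FACS-sorted. Anti-HA (expression) and streptavidin (reagent binding) fluorescence set low and high (top ~1%) gates. Polyreactivity labels come from the gate of origin. Genes were colony-PCR amplified, MiSeq 2 × 250 sequenced and filtered by CDR length.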
row,Sequence,polyreactivity (PSR sort gate)
1,QVQLVESGGGLVQAGGSLRLSCAASGSNFAKNAMGWYRQAPGKERELVAAITSSGGSTYYADSVKGRFTISRDNAKNTVYLQMNSLNPEDTAVYYCARPNDWYHYHGWYWSIYRYDYWGQGTQVTVSS,high polyreactivity
2,QVQLVESGVGIVQAGGSLRLSCAASGSTLVYYDMGWYRQAPGKERELVATITGTDSTYYADSVKGRFTISRDNAKNTVYLQMNSLKPEDTADCAADRAGSRPDYDYWGQGTQVTVSS,low polyreactivity
3,QVQLVESGGGLVQAGGSLRLSCAASGGIFAYNAMGWYRQAPGKERELVATISYSGGSTYYADSVKGRFTISRDNAKNTVYLQMNSLKPEDTAVYYCATRLYGWRGRYNYWGQGTQVTVSS,high polyreactivity
4,QVQLVESGGGLVQAGGSLRLSCAASGSTFGWYAMGWYRQAPGKETELDAAISWSGGSTYYADSVKGRFTISRDNAKNTVYLQMNSLKPEDTAVYYCARDTQYPYYFLMDYWGQGTQVTVSS,low polyreactivity
5,QVQLVESGGGLVQAGGSLRLSCAASGFTFDENAMGWYRQAPGINYSGASTYYADSVKGRFTISRDNAKNTVYFQMNSLKPEDTAVYYCAAEVVAQMNYWGQGTQVTVSS,low polyreactivity
6,QVQLVETGGGLVQAGGSLRLSCADSGSIYQKNAMGWYRQPPGKERELVAAITSGGTTYYADSVKGRFTISRDNAKNTVYLQMYSLKPEDTAVYYCAKYHCRLSFSRYPYDYWGQGTQVTVSS,high polyreactivity
7,QVQLVESGGGLVQAGGRLRLSCAASGRIFRGYAMGWYRQAPGKERELVAGITWGGGRTYYADSVKGRFTISRDNAKNTVYLQLNSLKPEDTAVYYCAAYYSQDSRRKYDYWGQGTQVTVSS,high polyreactivity
8,QVQRVESGGGIDQAGGSLRLSCAASGLTFSIYAIGWYRQAPGKERDLVDAISWSGGSTYYADSVKGRFTISRDNAKNTVYLQMISLKPEVTAVYYCAARVYRPWWRYDYWGQGTQVSVSS,high polyreactivity
9,QVQLVETGGGLVQAGGSLRLSCAASGITFGRNTMGWYRQAPGKERELVAAIDSGANTYADSVKGRFTISRDNAKNTVYLQMNSLKPEDTAVYYCAVDGGEFSSYGYWGQATQVTVSS,low polyreactivity
10,QVQLVESGGGLVQAGGSLRLSCAASGSTFYANAMGWYRQAPGKERELVAAIDWSGATTYYADSVKGRFTISRDTAKNTVYLQMNSLKPEDTAVYYCAAYRYRPHVHRYYRYDYWGQGTQVTVSS,high polyreactivity
11,QVQLVESGGGLVQAGGSLRLSCAASGSIFRGYGMGWYRQAPGKERELVAANNYSGGSTYYADSVKGRFTISRDNAKNTVYLQMNSLKPEDTAVYYCNKVYYRQRGEYYYWGQGTQVTVSS,high polyreactivity
12,QVQLVESAGGLVQAGGSLRLRCAASGRIFTHNAMGWYRQAPGKERELVAAITSGGRTTYADSVKGRFTISRDNAKNTVYLQMNSLKPEDSAVYYCNADTGLGSLDFDKRDYWGQGTQVTVSS,low polyreactivity
13,QVQLVESGGGLVQAGGSLRLSCAASGSIFKGYAMGWYRQAPGKERELVAANTYSGGGTYYADSVKGRFTISRDNAKNTVYLQMKSLKQEDTAVYYCNADRYYPDDLSDGVGTYDYWGQGTQVSVSS,low polyreactivity
14,QVQLVESGGGLVQAGGSLRLSCAASGITFYKYVMGWYRQAPGKERELVAAISSVGSTYYADSVKGRFTISRDNAKNTVYLQMNSLKPEDTAVYYCNARVYYSTTRYYVRVDYWGQGTQVTVSS,high polyreactivity
15,QVQLVESGGGLVQAGGSLRLSCAPSGRTFVDYDMGWYRQAPGKERELVADINSGGSTYYADSVKGRFTISRDNAKNTVYLQMNSLKPEDTAVYYCAARYTFDRWKFGYWGQGTQVTVSS,high polyreactivity
16,QVQLVESGGGLVQAGGSLRLSCAASGRIFAAYAMGWYRQAPGKEREFVAAIRLSGGSTYYADSVKGRFTISRDNAKNTVYLQMNSLKPEDTAVYYCAARYPGVARFYYWGQGTQLTVSS,high polyreactivity
17,QVQLVESGGGLVQAGGSLRLSCAASGRIFRGYVMGWYRQAPGKERELVAVITSGGRTYYADSVKGRFTISRDNAKNTVYLQMNSHKPEDTAVYYCATYPRYKPYYYWGQGTQVTVSS,low polyreactivity
18,QVQLVESGGGLVQAGGSLRLSCSASGSIFSGNTMGWYRQAPGKERELVAAISGGGSTNYADSVKGRFTISRDNAKNTVYLQMNSLKPEDTAVYYCAKDLSLGASRMDYWGQGTQVTVSS,low polyreactivity
19,QVQLVESGGGLVQAGGSLRLSCAASGFTFIQYDMGWYRLAPGKERELVAAISSSGGSTYYADSVKGRFTISRDNAKNTVYLQMNSLKPEDTAVYNCAADPWVRLEYDYWGQGTQVTVSS,low polyreactivity
20,QVQLVESGGGLVQAGGSLRLSCAASGLTSLGNAMGWYRQAPGKERELVAAITRTGTSTYYADSVKGRFTISRDNAKNTVYLQMNSLKPEDTAVYYCAALDRYSTEYKYQLYKQEYDYWGQGTQVTVSS,low polyreactivity
21,QVQLVESGGGLVQAGGSLRLSCAASGSTFSYYAMGWYRQAPGKERELVAAISSRGGSTYYADSVKGRFTISRDNAKNTVYLQMNSQKPEDTAVYYCNADHQFRSSVSGDHDYWGQGTQVTVSS,high polyreactivity
22,QVQLVESGGGLVQAGGSLRLSCAASGSILVGNAMGWYRQAPGIERELVAGSSESDGSTNYADSGKGRFTISRDKSKNTVYLPMNSLKPEETAVYYRAADIWTSGDIPYDYWGQGTQVTVSS,low polyreactivity

row,Sequence,polyreactivity (PSR sort gate)
1,QVQLVESVGGLVQAGGSLRLSCAASGSIRYYAMGWYRQAPGKERELVAAISSRGTNTYYADSVKGRFTISRDNAKNTVYLQMNSLKPEDTAVYYCNAVVGLGYNYWGQGTQVTVSS,high polyreactivity
2,QVQLVESGGGLVQAGCSLRLSCAASGRIFRKNTMGWYIQAPGKEWELVAAISFRGASTYYADSVKGRFTISRDNAKNTVYLQMNSLKPEDTAVYYCATVRAHASRLGYDYWGQGTQVTVSS,high polyreactivity
3,QVQLVESGGGLVQAGGSLRVSCAASGSIFYSYGMGWYRQAPVKERELVAAITSSGGGTYYADSVKGRFTISRDNAKNSVYLQMNSLKPEDTAVYYCAAHDRNYNYYPTFYYWGQGTQVSVSS,low polyreactivity
4,QVQLVESGGGLVQAGGRLRLSCSASGIILPKYTMGGYRQAPGKERELVAAITRSGGSTYYADSVKGRFTISRDNAKNTVYLHMISMKPEDTAVYYCAAERASFRYQDYYIYDYWGQGTEVTVSS,high polyreactivity
5,QVQLVESGGGLVQAGGSRRLSCAASGRIFGVYAMGWYRQAPGKERELVAAIDRRGGRTYYADSVKGRFTISRDNAKNTVYLQMNSLKPEDTAVYYFATARYRADMGYWGQGTQVTVSS,high polyreactivity
6,QVQLVESRGGLVQSGGSLRLSCAASGSIFEIYHMGRYRQAPGNERELVASIRTSGGSTYYADSVKGRFTISRDNAKNTVYLQMNSLKPEDTAVYYCAAVGRSYYGHDYWGQGTQVTVSS,low polyreactivity
7,QVQLVESGGGLVQAGGSLRLSCAASGFIFDYYAMGWYRQAPGKERELVAAITSRGGSTYYADSVKGRFTISRDNAKNTVYLQMNSLKPEDTAVYYCNKDPHYYATGRFYYWGQGTQVTVSS,high polyreactivity
8,QLQLVESGGGLVQAGGSLRLSCAASGYTIIQYAMGWYRQAPGKERELVAGITWSGGSTYADSVKGRFSISRDNAKNTVYLQMNSLKPEDTAVYYCAADDRDIYQYGTPYGSGIRYDYWGQGTQVTVSS,low polyreactivity
9,QVHLVESGGGLVQAGGSLRLSCADSGRIILDYAMGWYRQAPGKERELVAAITWGGGSTNYADSVKGRFTNSRDNAKNTVYLQMNRLKPEDTAVYYCNADPHDQYDYWGKGTQVTVSS,low polyreactivity
10,QVQLVESGGGLVQAGGSLRLSCAASGSIFSSNAMGWYRQAPGTTNYADSVKGRFTISRDNAKNTVYLQMNSLKPEDTAVYYCAKDYVLFQYVDFQDDDYWGQGTQVTVSS,low polyreactivity
11,QVQLVESGGGLVQAGGSLRLSCAASGSIFTTNAMGWYRQAPGKERELVSAISSRGGSTYYADSVKGRFTISRDNAKNTVYLQMNSLKPEDTAVYYCAARYRWPIPGTQYEYWGQGTQVTVSS,low polyreactivity
12,QVQLVESGGGLVQAGGSLRLSCAASGSIFRKYAMGWYRQAPGKEREFVAAISRSGGGTYYADSVKGRFTISRDNAKNTVYLQMNSLKPEDTAVYYCAAEFRTGLQGEHYYWGQGTQVTVSS,low polyreactivity
13,QVQLVESGGGLVQAGGSLRLSCAASGSTFVVNAMGWYSLAPGKERELVAAITQDGDGTYYADSVKGRFTISRDNAKNTVYLQMNSLKPEDTAVYYCAAYPFSGPYDEFDYWRQGTQVTVSS,low polyreactivity
14,QVQLVESGGGLVQAGGSLRISCAASGFIIFEYDMGWYRQAPGKERDFVAAINFSGGSTYYADSEKGRFTISRDNAKNTVYLQMNSLKPEDTAVYYCAADVVRYYYTYDYWGQGTQVTVSS,low polyreactivity
15,QVQLVESGGGLVQAGGSLRLSCAASGRTFRVYAMGWYRQAPGKERELVAAITGSGDSTYYADSVKGRFTISRDNAKYTVYLQMNSLKPEDTAVYYCNAVYRSTFDYWGQGTQVTVSS,high polyreactivity
16,QVHLVESGGALVQAGGSLRLSCAASGFTFHTYASRLYRQAPGKEREFVAAISYSGGNTYYADSVKGHFTISRDNAKKTVYLHMNSLKPEDTAVYYCAAQYYYRYYWGPGTQVTVSS,high polyreactivity
17,QVQLVESGGGLVQAGGSLRLSCAASGRIFGRYAMGWYRQAPGKERELVATITSGGSTYYADSVKGRFTISRDNAKNTDYLQMNSLKPEDTAVYFCAAVHRGYFLAFYYWGQGTQVTVSS,high polyreactivity
18,QVQLVESGGGLVQAGGSLRLSCAASGRTFYPYARGWYREAPGKERELVAAISSNGVLTYYADSVKGRFTISRDNAKKSVYLQMNSLKPEDTAVYYCAARKPYVYHLDSWGQGTQVTVSS,high polyreactivity
19,QVQLVESGGGLVQAGGSLRLSCAPSGFTFTYYAMGWYRQAPGQERELVAAITQSGGSTFYADSVQGRFTISRDNAKNTVYLQMNSLKPEDTAVYYCAADIDLYYDYDYWGQGTQVTVSS,low polyreactivity
20,QVQLVESGGGLVQAGGSLRLSCAASGFTFVYKDMGWYRQAPGKEREFVAAISSGGSTYYADSVKGRFTISRDNAKNTVYLQMNSLKPEDTAVYYCARRNPGPKHARYGYWGQGTQVNVSS,high polyreactivity
21,QVQLVESGGGLVQAGGSLRLTCAASGSIFSRYAMGWYRQAPGKERELVAAISQRAGSTYYADSVKGRFTISRDNAKNTVYLQMNSLKPEDTAVYYCAARRRGRKERGEDYWGQGTQVTVSS,high polyreactivity
